From patent US20110166062A1 (INDIANA UNIVERSITY RESEARCH AND TECHNOLOGY, published 2011)
*1 amine or outer side, *2 acyl side, *3 side chain or, on linkers, in order; H or OH if unused. Where no end group is shown, it is not given here. Side-chain parts run from the residue outwards. [ ]: non-standard residue; d: D form. The star is where a group is joined. γGlu = O=C(O)[C@H](CCC(=O)[*:2])N[*:1]; Palmitoyl = CCCCCCCCCCCCCCCC(=O)*; Aib = CC(C)(N)C(=O)O

How the values were obtained:
Test in all cases: cell-based or functional assay
GIP receptor [1] = target: T1, GIP receptor (UniProt P48546 22-466)
T1 sequence (looked up): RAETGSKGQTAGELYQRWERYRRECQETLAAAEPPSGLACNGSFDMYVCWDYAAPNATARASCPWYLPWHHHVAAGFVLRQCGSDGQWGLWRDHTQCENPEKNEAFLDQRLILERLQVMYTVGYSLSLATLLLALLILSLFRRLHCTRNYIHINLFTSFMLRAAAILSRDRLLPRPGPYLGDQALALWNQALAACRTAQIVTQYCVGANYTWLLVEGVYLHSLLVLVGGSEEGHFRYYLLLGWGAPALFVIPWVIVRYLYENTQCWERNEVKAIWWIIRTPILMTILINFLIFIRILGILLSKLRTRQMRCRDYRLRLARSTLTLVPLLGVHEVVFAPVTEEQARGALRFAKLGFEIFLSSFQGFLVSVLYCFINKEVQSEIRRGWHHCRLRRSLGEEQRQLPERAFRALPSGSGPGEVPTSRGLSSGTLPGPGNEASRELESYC

glucagon receptor [2] = target: T2, glucagon receptor (UniProt P47871 26-477, limits assumed)
T2 sequence (P47871 26-477 limits assumed): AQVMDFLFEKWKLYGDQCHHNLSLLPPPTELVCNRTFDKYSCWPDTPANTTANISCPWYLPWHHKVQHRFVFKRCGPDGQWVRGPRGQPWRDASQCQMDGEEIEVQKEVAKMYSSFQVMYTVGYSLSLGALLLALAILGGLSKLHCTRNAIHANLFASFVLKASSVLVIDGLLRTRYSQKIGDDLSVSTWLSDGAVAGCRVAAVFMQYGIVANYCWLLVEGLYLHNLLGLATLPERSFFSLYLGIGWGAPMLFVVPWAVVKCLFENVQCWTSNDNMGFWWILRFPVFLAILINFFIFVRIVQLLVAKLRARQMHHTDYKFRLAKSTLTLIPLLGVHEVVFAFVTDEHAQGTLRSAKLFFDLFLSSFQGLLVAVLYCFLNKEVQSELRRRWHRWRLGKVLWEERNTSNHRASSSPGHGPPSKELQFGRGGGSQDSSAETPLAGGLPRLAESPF

GLP-1 receptor [3] = target: T3, GLP-1 receptor (UniProt P43220 24-463, limits assumed)
GIP receptor [4] = target: T1, GIP receptor; remark: listed apart in the source
glucagon receptor [5] = target: T2, glucagon receptor; remark: listed apart in the source
GLP-1 receptor [6] = target: T3, GLP-1 receptor; remark: listed apart in the source

Binder	% Relative activity at the Receptor for GIP (GIP receptor [1]) [%]	% Relative activity at the Receptor for Glucagon (glucagon receptor [2]) [%]	% Relative activity at the Receptor for GLP-1 (GLP-1 receptor [3]) [%]	EC50, nM; GIP Receptor (GIP receptor [4]) [nM]	relative activity; GIP Receptor (GIP receptor [4]) [%]	EC50, nM; Glucagon Receptor (glucagon receptor [5]) [nM]	relative activity; Glucagon Receptor (glucagon receptor [5]) [%]	EC50, nM; GLP-1 Receptor (GLP-1 receptor [6]) [nM]	relative activity; GLP-1 Receptor (GLP-1 receptor [6]) [%]
Y[Aib]QGTFISDK([γGlu-γGlu-Palmitoyl])SIYLDKQAA[Aib]EFVNWLLAGGPSSGAPPPS-NH2 (N-terminus assumed; SMILES CCCCCCCCCCCCCCCC(=O)N[C@@H](CCC(=O)N[C@@H](CCC(=O)NCCCC[C@H](NC(=O)[C@H](CC(=O)O)NC(=O)[C@H](CO)NC(=O)[C@@H](NC(=O)[C@H](Cc1ccccc1)NC(=O)[C@@H](NC(=O)CNC(=O)[C@H](CCC(N)=O)NC(=O)C(C)(C)NC(=O)[C@@H](N)Cc1ccc(O)cc1)[C@@H](C)O)[C@@H](C)CC)C(=O)N[C@@H](CO)C(=O)N[C@H](C(=O)N[C@@H](Cc1ccc(O)cc1)C(=O)N[C@@H](CC(C)C)C(=O)N[C@@H](CC(=O)O)C(=O)N[C@@H](CCCCN)C(=O)N[C@@H](CCC(N)=O)C(=O)N[C@@H](C)C(=O)N[C@@H](C)C(=O)NC(C)(C)C(=O)N[C@@H](CCC(=O)O)C(=O)N[C@@H](Cc1ccccc1)C(=O)N[C@H](C(=O)N[C@@H](CC(N)=O)C(=O)N[C@@H](Cc1c[nH]c2ccccc12)C(=O)N[C@@H](CC(C)C)C(=O)N[C@@H](CC(C)C)C(=O)N[C@@H](C)C(=O)NCC(=O)NCC(=O)N1CCC[C@H]1C(=O)N[C@@H](CO)C(=O)N[C@@H](CO)C(=O)NCC(=O)N[C@@H](C)C(=O)N1CCC[C@H]1C(=O)N1CCC[C@H]1C(=O)N1CCC[C@H]1C(=O)N[C@@H](CO)C(N)=O)C(C)C)[C@@H](C)CC)C(=O)O)C(=O)O) [mt-385]	715	239	3.18						
Y[Aib]EGTFTSDK([γGlu-γGlu-Palmitoyl])SIYLDKQAA[Aib]EFVNWLLAGGPSSGAPPPSK-NH2 (N-terminus assumed; SMILES CCCCCCCCCCCCCCCC(=O)N[C@@H](CCC(=O)N[C@@H](CCC(=O)NCCCC[C@H](NC(=O)[C@H](CC(=O)O)NC(=O)[C@H](CO)NC(=O)[C@@H](NC(=O)[C@H](Cc1ccccc1)NC(=O)[C@@H](NC(=O)CNC(=O)[C@H](CCC(=O)O)NC(=O)C(C)(C)NC(=O)[C@@H](N)Cc1ccc(O)cc1)[C@@H](C)O)[C@@H](C)O)C(=O)N[C@@H](CO)C(=O)N[C@H](C(=O)N[C@@H](Cc1ccc(O)cc1)C(=O)N[C@@H](CC(C)C)C(=O)N[C@@H](CC(=O)O)C(=O)N[C@@H](CCCCN)C(=O)N[C@@H](CCC(N)=O)C(=O)N[C@@H](C)C(=O)N[C@@H](C)C(=O)NC(C)(C)C(=O)N[C@@H](CCC(=O)O)C(=O)N[C@@H](Cc1ccccc1)C(=O)N[C@H](C(=O)N[C@@H](CC(N)=O)C(=O)N[C@@H](Cc1c[nH]c2ccccc12)C(=O)N[C@@H](CC(C)C)C(=O)N[C@@H](CC(C)C)C(=O)N[C@@H](C)C(=O)NCC(=O)NCC(=O)N1CCC[C@H]1C(=O)N[C@@H](CO)C(=O)N[C@@H](CO)C(=O)NCC(=O)N[C@@H](C)C(=O)N1CCC[C@H]1C(=O)N1CCC[C@H]1C(=O)N1CCC[C@H]1C(=O)N[C@@H](CO)C(=O)N[C@@H](CCCCN)C(N)=O)C(C)C)[C@@H](C)CC)C(=O)O)C(=O)O) [mt-369]	204	1.54	385	0.0014	204	2.19	1.54	0.0041	385
Y[Aib]QGTFTSDK([γGlu-γGlu-Palmitoyl])SIYLDKQAA[Aib]EFVNWLLAGGPSSGAPPPS-NH2 (N-terminus assumed; SMILES CCCCCCCCCCCCCCCC(=O)N[C@@H](CCC(=O)N[C@@H](CCC(=O)NCCCC[C@H](NC(=O)[C@H](CC(=O)O)NC(=O)[C@H](CO)NC(=O)[C@@H](NC(=O)[C@H](Cc1ccccc1)NC(=O)[C@@H](NC(=O)CNC(=O)[C@H](CCC(N)=O)NC(=O)C(C)(C)NC(=O)[C@@H](N)Cc1ccc(O)cc1)[C@@H](C)O)[C@@H](C)O)C(=O)N[C@@H](CO)C(=O)N[C@H](C(=O)N[C@@H](Cc1ccc(O)cc1)C(=O)N[C@@H](CC(C)C)C(=O)N[C@@H](CC(=O)O)C(=O)N[C@@H](CCCCN)C(=O)N[C@@H](CCC(N)=O)C(=O)N[C@@H](C)C(=O)N[C@@H](C)C(=O)NC(C)(C)C(=O)N[C@@H](CCC(=O)O)C(=O)N[C@@H](Cc1ccccc1)C(=O)N[C@H](C(=O)N[C@@H](CC(N)=O)C(=O)N[C@@H](Cc1c[nH]c2ccccc12)C(=O)N[C@@H](CC(C)C)C(=O)N[C@@H](CC(C)C)C(=O)N[C@@H](C)C(=O)NCC(=O)NCC(=O)N1CCC[C@H]1C(=O)N[C@@H](CO)C(=O)N[C@@H](CO)C(=O)NCC(=O)N[C@@H](C)C(=O)N1CCC[C@H]1C(=O)N1CCC[C@H]1C(=O)N1CCC[C@H]1C(=O)N[C@@H](CO)C(N)=O)C(C)C)[C@@H](C)CC)C(=O)O)C(=O)O) [mt-384]	808	228	349						
Y[Aib]QGTFTSDYSIYLDKQAA[Aib]EFVNWLLAGGPSSGAPPPSK([γGlu-γGlu-Palmitoyl])-NH2 (N-terminus assumed; SMILES CCCCCCCCCCCCCCCC(=O)N[C@@H](CCC(=O)N[C@@H](CCC(=O)NCCCC[C@H](NC(=O)[C@H](CO)NC(=O)[C@@H]1CCCN1C(=O)[C@@H]1CCCN1C(=O)[C@@H]1CCCN1C(=O)[C@H](C)NC(=O)CNC(=O)[C@H](CO)NC(=O)[C@H](CO)NC(=O)[C@@H]1CCCN1C(=O)CNC(=O)CNC(=O)[C@H](C)NC(=O)[C@H](CC(C)C)NC(=O)[C@H](CC(C)C)NC(=O)[C@H](Cc1c[nH]c2ccccc12)NC(=O)[C@H](CC(N)=O)NC(=O)[C@@H](NC(=O)[C@H](Cc1ccccc1)NC(=O)[C@H](CCC(=O)O)NC(=O)C(C)(C)NC(=O)[C@H](C)NC(=O)[C@H](C)NC(=O)[C@H](CCC(N)=O)NC(=O)[C@H](CCCCN)NC(=O)[C@H](CC(=O)O)NC(=O)[C@H](CC(C)C)NC(=O)[C@H](Cc1ccc(O)cc1)NC(=O)[C@@H](NC(=O)[C@H](CO)NC(=O)[C@H](Cc1ccc(O)cc1)NC(=O)[C@H](CC(=O)O)NC(=O)[C@H](CO)NC(=O)[C@@H](NC(=O)[C@H](Cc1ccccc1)NC(=O)[C@@H](NC(=O)CNC(=O)[C@H](CCC(N)=O)NC(=O)C(C)(C)NC(=O)[C@@H](N)Cc1ccc(O)cc1)[C@@H](C)O)[C@@H](C)O)[C@@H](C)CC)C(C)C)C(N)=O)C(=O)O)C(=O)O) [mt-368]	296	492	419	0.00097	296	0.0069	492	0.0038	419
